Assay results reported in patent publication US20150147384A1 (MIT, published 2015).
No end group written: not given here.

Target: P-glycoprotein (UniProt P08183 1-1280)
Assay: cell-based or functional assay

Sequence of P-glycoprotein (P08183 whole entry): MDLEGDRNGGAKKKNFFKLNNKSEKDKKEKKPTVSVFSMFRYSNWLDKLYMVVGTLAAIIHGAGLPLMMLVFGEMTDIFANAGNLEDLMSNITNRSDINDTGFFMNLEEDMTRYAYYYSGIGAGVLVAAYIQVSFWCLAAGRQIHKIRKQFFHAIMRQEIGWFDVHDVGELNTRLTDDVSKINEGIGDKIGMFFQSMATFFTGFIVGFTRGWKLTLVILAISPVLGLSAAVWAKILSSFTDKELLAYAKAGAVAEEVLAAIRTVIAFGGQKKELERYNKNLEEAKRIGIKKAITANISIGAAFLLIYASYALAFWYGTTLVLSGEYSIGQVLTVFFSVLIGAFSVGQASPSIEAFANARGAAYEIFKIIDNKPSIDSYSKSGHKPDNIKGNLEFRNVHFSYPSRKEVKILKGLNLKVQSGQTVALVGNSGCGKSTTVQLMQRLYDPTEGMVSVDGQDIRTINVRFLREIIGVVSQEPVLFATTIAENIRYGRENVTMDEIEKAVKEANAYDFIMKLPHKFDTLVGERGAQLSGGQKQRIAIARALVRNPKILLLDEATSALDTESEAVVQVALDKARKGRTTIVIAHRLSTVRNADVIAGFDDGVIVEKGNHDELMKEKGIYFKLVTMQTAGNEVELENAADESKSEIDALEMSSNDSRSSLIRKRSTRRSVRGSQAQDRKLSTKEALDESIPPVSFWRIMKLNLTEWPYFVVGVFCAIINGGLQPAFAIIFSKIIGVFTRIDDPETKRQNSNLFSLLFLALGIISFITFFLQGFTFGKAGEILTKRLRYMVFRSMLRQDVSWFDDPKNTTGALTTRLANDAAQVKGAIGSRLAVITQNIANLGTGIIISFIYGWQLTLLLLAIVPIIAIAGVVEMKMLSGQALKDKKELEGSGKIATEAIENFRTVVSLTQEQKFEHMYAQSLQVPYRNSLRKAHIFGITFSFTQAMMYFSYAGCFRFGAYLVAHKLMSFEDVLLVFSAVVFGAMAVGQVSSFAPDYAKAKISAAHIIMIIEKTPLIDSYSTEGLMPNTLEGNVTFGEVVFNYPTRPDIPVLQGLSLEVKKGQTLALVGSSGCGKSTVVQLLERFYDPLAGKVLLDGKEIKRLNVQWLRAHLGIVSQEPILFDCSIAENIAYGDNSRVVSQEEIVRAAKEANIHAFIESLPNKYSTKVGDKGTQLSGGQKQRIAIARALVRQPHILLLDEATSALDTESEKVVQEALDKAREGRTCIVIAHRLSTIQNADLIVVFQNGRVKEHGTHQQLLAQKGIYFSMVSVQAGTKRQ

Row | Enhancement ratio of Rhodamine-123 transport against the control, peptide 0.02 mg/ml [ratio] | Enhancement ratio of Rhodamine-123 transport against the control, peptide concentration given as 2 mg/ml (caption: 0.2 mg/mL) [ratio] | Papp of Rhodamine-123 through a Caco-2 monolayer (basolateral to apical), peptide 0.02 mg/ml [×10⁻⁶ cm/s] | Papp of Rhodamine-123 through a Caco-2 monolayer (basolateral to apical), peptide concentration given as 2 mg/ml (caption: 0.2 mg/mL) [×10⁻⁶ cm/s] | Binder
1 | 0.9 | 1.7 | 10.1 | 18.4 | Ac-AAAAAAD-OH [acetyl-AAAAAAD-COOH]
2 | 1.2 | 1.4 | 13 | 15.1 | DAAAAAA-OH [DAAAAAA-COOH]
3 | 1 | 1 | 10.8 | 10.5 | KAAAAAA-NH2 [KAAAAAA-CONH2]
4 | 0.9 | 1.7 | 10 | 18.2 | Ac-AAAAAAK-NH2 [acetyl-AAAAAAK-CONH2]
